Source: article PMC3615468 (Nature Communications, 2013)

Molecular target: the molecule itself
Assay: SEC

B1: Recombinant CIDE-N domain of mouse Fsp27 (a.a. 39-119) (domain or fragment, UniProt P56198 39-119, looked up)
chain: TPRARPCRVSTADRKVRKGIMAHSLEDLLNKVQDILKLKDKPFSLVLEEDGTIVETEEYFQALAKDTMFMVLLKGQKWKPP
  stoichiometry N: 2
